Test results from patent US20250101113A1.

Molecular target: human CD94 on cells (human) (UniProt Q13241)
Assay: cell-based or functional assay

UniProt Q13241, sequence (Q13241 whole entry): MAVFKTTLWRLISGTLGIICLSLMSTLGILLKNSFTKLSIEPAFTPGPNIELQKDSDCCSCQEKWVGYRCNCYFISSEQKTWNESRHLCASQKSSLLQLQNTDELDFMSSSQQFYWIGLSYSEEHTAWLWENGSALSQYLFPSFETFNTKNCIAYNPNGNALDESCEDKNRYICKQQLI

## commercial murine anti-CD94 antibody (clone DX22 from Biolegend Catalog #305502)
  CD107a expression on IL-2-activated NK cells co-cultured with HLA-E-expressing SP-53 cells (% of cells): 16%
